According to paper PMC8602292, “Acyl carrier protein promotes MukBEF action in Escherichia coli chromosome organization-segregation” (Nature Communications, 2021):

B1: MukB (wild type, MukB-His) (natural protein, Escherichia coli, UniProt P22523 1-1486, looked up)
chain: MIERGKFRSLTLINWNGFFARTFDLDELVTTLSGGNGAGKSTTMAAFVTALIPDLTLLHFRNTTEAGATSGSRDKGLHGKLKAGVCYSMLDTINSRHQRVVVGVRLQQVAGRDRKVDIKPFAIQGLPMSVQPTQLVTETLNERQARVLPLNELKDKLEAMEGVQFKQFNSITDYHSLMFDLGIIARRLRSASDRSKFYRLIEASLYGGISSAITRSLRDYLLPENSGVRKAFQDMEAALRENRMTLEAIRVTQSDRDLFKHLISEATNYVAADYMRHANERRVHLDKALEFRRELHTSRQQLAAEQYKHVDMARELAEHNGAEGDLEADYQAASDHLNLVQTALRQQEKIERYEADLDELQIRLEEQNEVVAEAIERQQENEARAEAAELEVDELKSQLADYQQALDVQQTRAIQYNQAIAALNRAKELCHLPDLTADCAAEWLETFQAKELEATEKMLSLEQKMSMAQTAHSQFEQAYQLVVAINGPLARNEAWDVARELLREGVDQRHLAEQVQPLRMRLSELEQRLREQQEAERLLADFCKRQGKNFDIDELEALHQELEARIASLSDSVSNAREERMALRQEQEQLQSRIQSLMQRAPVWLAAQNSLNQLSEQCGEEFTSSQDVTEYLQQLLEREREAIVERDEVGARKNAVDEEIERLSQPGGSEDQRLNALAERFGGVLLSEIYDDVSLEDAPYFSALYGPSRHAIVVPDLSQVTEHLEGLTDCPEDLYLIEGDPQSFDDSVFSVDELEKAVVVKIADRQWRYSRFPEVPLFGRAARESRIESLHAEREVLSERFATLSFDVQKTQRLHQAFSRFIGSHLAVAFESDPEAEIRQLNSRRVELERALSNHENDNQQQRIQFEQAKEGVTALNRILPRLNLLADDSLADRVDEIRERLDEAQEAARFVQQFGNQLAKLEPIVSVLQSDPEQFEQLKEDYAYSQQMQRDARQQAFALTEVVQRRAHFSYSDSAEMLSGNSDLNEKLRERLEQAEAERTRAREALRGHAAQLSQYNQVLASLKSSYDTKKELLNDLQRELQDIGVRADSGAEERARIRRDELHAQLSNNRSRRNQLEKALTFCEAEMDNLTRKLRKLERDYFEMREQVVTAKAGWCAVMRMVKDNGVERRLHRRELAYLSADDLRSMSDKALGALRLAVADNEHLRDVLRMSEDPKRPERKIQFFVAVYQHLRERIRQDIIRTDDPVEAIEQMEIELSRLTEELTSREQKLAISSRSVANIIRKTIQREQNRIRMLNQGLQNVSFGQVNSVRLNVNVRETHAMLLDVLSEQHEQHQDLFNSNRLTFSEALAKLYQRLNPQIDMGQRTPQTIGEELLDYRNYLEMEVEVNRGSDGWLRAESGALSTGEAIGTGMSILVMVVQSWEDESRRLRGKDISPCRLLFLDEAARLDARSIATLFELCERLQMQLIIAAPENISPEKGTTYKLVRKVFQNTEHVHVVGLRGFAPQLPETLPGTDEAPSQAS
notes: MukB, the SMC protein of Escherichia coli MukBEF; wild type; The end of the tag is read from the printed name 'MukB-His'; The same construct was used with co-purified AcpP or depleted of AcpP by an extended salt gradient on heparin; also called WT MukB; AcpP-depleted MukB; source: E. coli C3013I (NEB), pET vector, purified (TALON, HiTrap Heparin, Superdex 200); not shown: His tag, C-terminal, kept

Tests used:
[1] = target: MukB^KK (K1114E and K1125E) (Escherichia coli) (UniProt P22523)
[2] = target: T1, MukB^KRK (K1114E, R1122E and K1125E) (Escherichia coli, UniProt P22523 1-1486, K1114E | R1122E | K1125E)
T1 construct: E. coli MukB, triple charge-reversed mutant; source: E. coli FL01 (mukB 3xFLAG C3013I), purified (TALON, HiTrap Heparin, Superdex 200); not shown: His tag, C-terminal, kept
T1 sequence (looked up): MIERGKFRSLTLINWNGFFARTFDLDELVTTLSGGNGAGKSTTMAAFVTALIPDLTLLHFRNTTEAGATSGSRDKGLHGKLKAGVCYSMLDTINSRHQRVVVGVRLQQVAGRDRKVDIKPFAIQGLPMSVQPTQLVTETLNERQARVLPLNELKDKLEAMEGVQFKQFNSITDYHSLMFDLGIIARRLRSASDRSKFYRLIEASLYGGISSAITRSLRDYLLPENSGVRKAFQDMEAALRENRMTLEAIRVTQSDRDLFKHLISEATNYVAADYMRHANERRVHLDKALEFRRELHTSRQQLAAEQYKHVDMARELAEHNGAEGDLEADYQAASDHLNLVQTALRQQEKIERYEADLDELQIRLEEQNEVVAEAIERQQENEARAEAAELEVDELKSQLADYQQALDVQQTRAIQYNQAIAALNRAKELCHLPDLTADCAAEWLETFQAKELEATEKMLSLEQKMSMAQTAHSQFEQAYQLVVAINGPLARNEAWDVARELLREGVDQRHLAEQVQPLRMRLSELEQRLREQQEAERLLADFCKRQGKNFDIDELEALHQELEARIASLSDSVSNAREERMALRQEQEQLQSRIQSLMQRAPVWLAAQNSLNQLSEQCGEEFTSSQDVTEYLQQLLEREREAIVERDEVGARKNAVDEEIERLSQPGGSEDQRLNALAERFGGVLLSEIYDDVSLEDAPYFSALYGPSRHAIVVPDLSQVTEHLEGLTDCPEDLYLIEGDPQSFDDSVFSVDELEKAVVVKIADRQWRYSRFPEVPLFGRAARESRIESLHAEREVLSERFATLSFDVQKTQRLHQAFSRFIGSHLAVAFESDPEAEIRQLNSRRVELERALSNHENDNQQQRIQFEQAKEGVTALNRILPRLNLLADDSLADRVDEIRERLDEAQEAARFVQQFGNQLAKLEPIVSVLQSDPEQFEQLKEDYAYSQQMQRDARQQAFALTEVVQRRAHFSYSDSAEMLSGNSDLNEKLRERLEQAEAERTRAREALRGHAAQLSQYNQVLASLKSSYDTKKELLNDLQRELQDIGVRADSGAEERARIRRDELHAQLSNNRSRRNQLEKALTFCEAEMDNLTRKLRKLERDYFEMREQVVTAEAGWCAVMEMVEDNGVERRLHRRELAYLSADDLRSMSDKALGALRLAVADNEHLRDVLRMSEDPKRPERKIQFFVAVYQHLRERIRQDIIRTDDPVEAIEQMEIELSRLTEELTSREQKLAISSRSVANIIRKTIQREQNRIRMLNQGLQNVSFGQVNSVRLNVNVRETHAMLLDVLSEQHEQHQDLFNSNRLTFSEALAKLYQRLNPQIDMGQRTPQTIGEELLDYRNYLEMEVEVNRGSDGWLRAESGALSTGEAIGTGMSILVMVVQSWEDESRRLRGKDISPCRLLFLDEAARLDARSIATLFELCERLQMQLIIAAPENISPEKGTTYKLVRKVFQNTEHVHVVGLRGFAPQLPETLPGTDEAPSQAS

[3] = target: B1
[4] = target: MukB^N (MukB Neck) (Escherichia coli); assay: native MS; MukB^N or MukB^HN with co-purified AcpP; 200 mM ammonium acetate pH 8.0
[5] = target: MukB^HN (MukB Head-Neck) (Escherichia coli); assay: as above
[6] = target: MukB (wild type, MukB-His) (Escherichia coli) (UniProt P22523)
[7] = target: the molecule itself; assay: native MS; mixtures of MukB, MukE, MukF and AcpP at various concentrations of MukB; 200 mM ammonium acetate pH 8.0

## Acyl Carrier Protein (AcpP), recombinant (from UniProt P0A6A8 1-78) (natural protein)
[1]
  ATPase activity with MukEF against increasing AcpP (up to 50 μM) (% of WT ATPase activity): 60
[2]
  ATPase activity with MukEF against increasing AcpP (up to 100 times excess, 50 μM) (ATP molecules/MukB2/min): 7.6
[3]
  ATPase activity of AcpP-depleted MukB with MukF, without and with added recombinant AcpP (ATP molecules/MukB2/min): 29

## MukB^N (MukB Neck) (domain or fragment)
[4]
  stoichiometry N: 2

## Acyl Carrier Protein (AcpP), native, co-purified from the E. coli host (from UniProt P0A6A8 1-78) (natural protein)
[5]
  stoichiometry N: 1
[4]
  stoichiometry N: 1
[6]
  ATPase activity of MukBF co-purified with AcpP (ATP molecules/MukB2/min): 27.2

## B1
[7]
  binding result: binds
